In article PMC7275706 one finds Ki, fold reduction of affinity against wild-type AC9 and Kd data, which are given here for seven substances.

A word on the Ki: it is the equilibrium dissociation constant of an inhibitor or competing ligand from its target. A higher Ki goes with weaker binding. As usually defined, the Kd is the concentration at which binding is half-saturated.

Assay [1] addresses Toxoplasma gondii ERK7 kinase domain, ERK7_(2–358). Briefly: fluorescence polarisation competition. The settings on record: competition with fluorescein-labeled wild-type AC9.
Assay [2] deals with Toxoplasma gondii ERK7 kinase domain, ERK7_(2–358) (Toxoplasma gondii). Briefly: fluorescence polarisation; competition: unlabeled AC9 constructs titrated against 10 nM fluorescein-AC9 and 100 nM ERK7; single-site inhibition, global fit. On the technique in general: In fluorescence polarisation assays a small probe gives low polarisation when free and higher when bound to something large.

Assay [3] has as its target APS 609-621 (Rattus norvegicus) (UniProt Q9Z200). The note with it: cited from earlier work.
The target of assay [4] is Shc 423-435 (Homo sapiens) (UniProt P29353). The note with it: cited from earlier work.
The target in assay [5] is fluorescein-labeled AC9_(419–452) with an additional N-terminal Cys (Toxoplasma gondii). Briefly: fluorescence polarisation; ERK7 2–358 serially diluted against 10 nM fluorescein-AC9 419–452, 20 μL in 384-well plate; single-site binding, global fit of three replicate experiments.
Assay [6] addresses fluorescein-labeled synthetic MEK2_(4–16) peptide (rat) (rat) (UniProt P36506). Briefly: fluorescence polarisation; ERK7 titrated against 100 nM fluorescein-labeled synthetic MEK2 4–16 peptide; single-site binding, global fit.

Grb2 SH2, sequence (P62993 57-155): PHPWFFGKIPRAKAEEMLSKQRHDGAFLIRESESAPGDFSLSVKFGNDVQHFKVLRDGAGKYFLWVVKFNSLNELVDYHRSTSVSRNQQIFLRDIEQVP

As to AC9 wild type R421A; K423A, the Ki in assay [1] was 63 nM. That is a double-digit nanomolar value. Turning to AC9_(R421A/K423A) (domain or fragment), the fold reduction of affinity against wild-type AC9 in assay [2] was 4 fold.

The substance AC9_(W438A) (domain or fragment) had a Ki in assay [2] of 1600 nM. For the substance Cbl TKB (from UniProt P22681), the dissociation constant (Kd) in assay [3] was 43 nM. For the substance Grb2 SH2 (from UniProt P62993), the Kd in assay [4] is 18 nM.

With “Toxoplasma gondii ERK7 kinase domain, ERK7_(2–358) (domain or fragment)”, the Kd in assay [5] is 34 nM; in assay [6], 12000 nM.

Regarding WT AC9_(401–452) (domain or fragment), the Ki in assay [2] is 15 nM.
